This data set in a line: Parallel Artificial Membrane Permeability Assay (PAMPA). In kind it is in vitro ADME. As to conditions: for Papp: read-out: Pe × 10-6 (cm/s), effective permeability; for permeability compared to norbuprenorphine-Leu-enkephalin: result in words. On the technique in general: In PAMPA a lipid-coated filter parts donor from acceptor wells.
Setting [1] is: 200 μM, pH 7.4, 20% 1-propanol cosolvent, 4 h.
Setting [2] is: 200 μM, pH 7.4, 20% 1-propanol cosolvent, 4 h, room temperature.

The source of these data is paper PMC6934973 (Iranian Journal of Pharmaceutical Research : IJPR, 2019).

For the molecule `CC(C)NCC(O)COc1cccc2ccccc12` (centres unmarked) [Propanolol, reference compound], the “% PAMPA Transport after 4h” value under setting [1] came out at 9.9%. Under setting [2], the “%Membrane retention” value was 21.8% and the “Pe × 10-6 (cm/s), effective permeability” value is on record as 5.23 × 10-6 cm/s.

On to `CC(C)C[C@H](NC(=O)[C@H](Cc1ccccc1)NC(=O)CNC(=O)CNC(=O)[C@@H](N)Cc1ccc(O)cc1)C(=O)O` [Standard Leu-enkephalin, Leu-enkephalin, reference compound], for which the “% PAMPA Transport after 4h” value under setting [1] was found to be 0.8%. Moreover, under setting [2], the “%Membrane retention” value worked out at 0% and the Papp came out at 0.38 ×10⁻⁶ cm/s.

As for `CO[C@]12CC[C@@]3(CC1=C(C)C(C)(C)C)[C@H]1Cc4ccc(O)c5c4[C@@]3(CCN1C(=O)CCC(=O)N[C@@H](Cc1ccc(O)cc1)C(=O)NCC(=O)NCC(=O)N[C@@H](Cc1ccccc1)C(=O)N[C@@H](CC(C)C)C(=O)O)[C@H]2O5` [Compound 23], the “permeability compared to norbuprenorphine-Leu-enkephalin” value is recorded as “lower permeability”. Moreover, the “% PAMPA Transport after 4h” value under setting [1] turned out to be 1.2%. For the same molecule, under setting [2], the “%Membrane retention” value is reported as 0% and the Papp was 0.63 ×10⁻⁶ cm/s.

On to `CO[C@]12CC[C@@]3(C/C1=C(/C)C(C)(C)C)[C@H]1Cc4ccc(O)c5c4[C@@]3(CCN1C(=O)[C@H](CC(C)C)NC(=O)[C@H](Cc1ccccc1)NC(=O)CNC(=O)CNC(=O)[C@@H](N)Cc1ccc(O)cc1)[C@H]2O5` [Compound 17], for which, under setting [1], the “% PAMPA Transport after 4h” value stood at 6.8%. In addition, under setting [2], the “%Membrane retention” value stood at 10.3% and the Papp turned out to be 3.46 ×10⁻⁶ cm/s.

With `CO[C@]12CC[C@@]3(CC1=C(C)C(C)(C)C)[C@H]1Cc4ccc(O)c5c4[C@@]3(CCN1C(=O)c1ccccc1C(=O)N[C@@H](Cc1ccc(O)cc1)C(=O)NCC(=O)NCC(=O)N[C@@H](Cc1ccccc1)C(=O)N[C@@H](CC(C)C)C(=O)O)[C@H]2O5` [Compound 24], the “permeability compared to norbuprenorphine-Leu-enkephalin” value was “lower permeability”. Also, the “% PAMPA Transport after 4h” value under setting [1] turned out to be 1.9%. For the same molecule, under setting [2], the “%Membrane retention” value is reported as 0% and the Papp stood at 0.92 ×10⁻⁶ cm/s.

For `CO[C@]12CC[C@@]3(C/C1=C(\C)C(C)(C)C)[C@H]1Cc4ccc(O)c5c4[C@@]3(CCN1C(=O)[C@H](CC(C)C)NC(=O)[C@H](Cc1ccccc1)NC(=O)CNC(=O)CNC(=O)[C@@H](N)Cc1ccc(O)cc1)[C@H]2O5` [Compound 18], the “% PAMPA Transport after 4h” value under setting [1] is listed as 4.3%. Besides, under setting [2], the “%Membrane retention” value was 30.9% and the Papp was 2.13 ×10⁻⁶ cm/s.

Consider `COc1ccc2c3c1O[C@@H]1[C@]34CCN(C(=O)[C@H](CCSC)NC(=O)[C@H](Cc3ccccc3)NC(=O)CNC(=O)CNC(=O)[C@@H](N)Cc3ccc(O)cc3)[C@H](C2)[C@]42CC[C@@]1(OC)/C(=C(/C)C(C)(C)C)C2` [Compound 15], for which, under setting [1], the “% PAMPA Transport after 4h” value was 2.9%. Under setting [2], the “%Membrane retention” value is 0% and the Papp stood at 1.42 ×10⁻⁶ cm/s.

For the molecule `COc1ccc2c3c1O[C@@H]1[C@]34CCN(C(=O)[C@H](CCSC)NC(=O)[C@H](Cc3ccccc3)NC(=O)CNC(=O)CNC(=O)[C@@H](N)Cc3ccc(O)cc3)[C@H](C2)[C@]42CC[C@@]1(OC)/C(=C(\C)C(C)(C)C)C2` [Compound 14], the “% PAMPA Transport after 4h” value under setting [1] was 1.6%. Under setting [2], the “%Membrane retention” value is 0% and the Papp is 0.77 ×10⁻⁶ cm/s.

As to `CSCC[C@H](NC(=O)[C@H](Cc1ccccc1)NC(=O)CNC(=O)CNC(=O)[C@@H](N)Cc1ccc(O)cc1)C(=O)O` [Standard Met-enkephalin, Met-enkephalin, reference compound], the “% PAMPA Transport after 4h” value under setting [1] is 0.2%. In addition, under setting [2], the “%Membrane retention” value was found to be 0% and the Papp is 0.09 ×10⁻⁶ cm/s.
